Data from patent US20160272683A1 (Novo Nordisk, published 2016).
* marks the point of attachment. C18 diacid = O=C(O)CCCCCCCCCCCCCCCCC(=O)*

T1: human calcitonin receptor (human, UniProt P30988 25-474)
T1 construct: whole, on cells; also called hCT-R; hCTR
T1 sequence (looked up): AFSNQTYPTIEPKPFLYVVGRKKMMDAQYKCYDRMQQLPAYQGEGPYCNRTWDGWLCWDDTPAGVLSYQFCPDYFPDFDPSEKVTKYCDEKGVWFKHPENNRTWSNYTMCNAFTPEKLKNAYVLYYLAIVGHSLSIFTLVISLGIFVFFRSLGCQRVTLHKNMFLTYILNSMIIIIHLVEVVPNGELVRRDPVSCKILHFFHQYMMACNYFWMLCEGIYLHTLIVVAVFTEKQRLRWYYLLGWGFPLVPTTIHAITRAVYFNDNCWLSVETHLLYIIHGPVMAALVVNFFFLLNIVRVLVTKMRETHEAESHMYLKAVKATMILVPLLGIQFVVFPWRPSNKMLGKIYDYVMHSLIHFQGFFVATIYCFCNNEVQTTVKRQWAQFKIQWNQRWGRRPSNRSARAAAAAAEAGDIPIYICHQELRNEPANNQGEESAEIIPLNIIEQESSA


Molecular target: T1, human calcitonin receptor
Test: whole-cell competition vs 125I-human calcitonin (Assay VIIa)
Description: The binding assay was performed using a BHK tk'ts 13 cell line was stably transfected with the human calcitonin receptor, and a CRE-responsive luciferase reporter gene.
The day before the assay the cells were Seeded into Poly-D-Lysin coated 384W Opaque White, BD BioCoat plates (10000 cells/well) and Incubated overnight at 37° C., 5% CO2, 95% humidity. […] The morning after, the plates were washed three times in HBSS (4° C.), and lyzed in Lysis buffer (0.1 M NaOH), 1% SDS. Scintillation cocktail (MicroScint40®) was added and the plates were shaken at 500 rpm for a short period. The plate was incubated at room temperature in the dark for 1 hour and Read on a TopCounter™ (Packard). The IC₅₀ was calculated using (one site binding competition analysis) GraphPad Prism5 as a measure of receptor affinity.

| Binder | IC50 |
| --- | --- |
| {C18 diacid}-EASEISTAIIGRLSAELHEIATLPRTETGPESP-NH2 (SMILES CC[C@H](C)[C@H](NC(=O)[C@H](C)NC(=O)[C@@H](NC(=O)[C@H](CO)NC(=O)[C@@H](NC(=O)[C@H](CCC(=O)O)NC(=O)[C@H](CO)NC(=O)[C@H](C)NC(=O)[C@H](CCC(=O)O)NC(=O)CCCCCCCCCCCCCCCCC(=O)O)[C@@H](C)CC)[C@@H](C)O)C(=O)N[C@H](C(=O)NCC(=O)N[C@@H](CCCNC(=N)N)C(=O)N[C@@H](CC(C)C)C(=O)N[C@@H](CO)C(=O)N[C@@H](C)C(=O)N[C@@H](CCC(=O)O)C(=O)N[C@@H](CC(C)C)C(=O)N[C@@H](Cc1c[nH]cn1)C(=O)N[C@@H](CCC(=O)O)C(=O)N[C@H](C(=O)N[C@@H](C)C(=O)N[C@H](C(=O)N[C@@H](CC(C)C)C(=O)N1CCC[C@H]1C(=O)N[C@@H](CCCNC(=N)N)C(=O)N[C@H](C(=O)N[C@@H](CCC(=O)O)C(=O)N[C@H](C(=O)NCC(=O)N1CCC[C@H]1C(=O)N[C@@H](CCC(=O)O)C(=O)N[C@@H](CO)C(=O)N1CCC[C@H]1C(N)=O)[C@@H](C)O)[C@@H](C)O)[C@@H](C)O)[C@@H](C)CC)[C@@H](C)CC, also called Ex. #77) [[N-terminal(C18 diacid), 5I, 9I, 10I, 20I]mimylin] | 1100 pM |
| {C18 diacid}-EASEISTAILGRLSAELHELATLPRTETGPESP-NH2 (SMILES CC[C@H](C)[C@H](NC(=O)[C@H](C)NC(=O)[C@@H](NC(=O)[C@H](CO)NC(=O)[C@@H](NC(=O)[C@H](CCC(=O)O)NC(=O)[C@H](CO)NC(=O)[C@H](C)NC(=O)[C@H](CCC(=O)O)NC(=O)CCCCCCCCCCCCCCCCC(=O)O)[C@@H](C)CC)[C@@H](C)O)C(=O)N[C@@H](CC(C)C)C(=O)NCC(=O)N[C@@H](CCCNC(=N)N)C(=O)N[C@@H](CC(C)C)C(=O)N[C@@H](CO)C(=O)N[C@@H](C)C(=O)N[C@@H](CCC(=O)O)C(=O)N[C@@H](CC(C)C)C(=O)N[C@@H](Cc1c[nH]cn1)C(=O)N[C@@H](CCC(=O)O)C(=O)N[C@@H](CC(C)C)C(=O)N[C@@H](C)C(=O)N[C@H](C(=O)N[C@@H](CC(C)C)C(=O)N1CCC[C@H]1C(=O)N[C@@H](CCCNC(=N)N)C(=O)N[C@H](C(=O)N[C@@H](CCC(=O)O)C(=O)N[C@H](C(=O)NCC(=O)N1CCC[C@H]1C(=O)N[C@@H](CCC(=O)O)C(=O)N[C@@H](CO)C(=O)N1CCC[C@H]1C(N)=O)[C@@H](C)O)[C@@H](C)O)[C@@H](C)O, also called Ex. #25) [[N-terminal(C18 diacid), 5I, 9I]mimylin] | 413 pM |
| {C18 diacid}-EASEISTAALGRLSAELHELATLPRTETGPESP-NH2 (SMILES CC[C@H](C)[C@H](NC(=O)[C@H](CCC(=O)O)NC(=O)[C@H](CO)NC(=O)[C@H](C)NC(=O)[C@H](CCC(=O)O)NC(=O)CCCCCCCCCCCCCCCCC(=O)O)C(=O)N[C@@H](CO)C(=O)N[C@H](C(=O)N[C@@H](C)C(=O)N[C@@H](C)C(=O)N[C@@H](CC(C)C)C(=O)NCC(=O)N[C@@H](CCCNC(=N)N)C(=O)N[C@@H](CC(C)C)C(=O)N[C@@H](CO)C(=O)N[C@@H](C)C(=O)N[C@@H](CCC(=O)O)C(=O)N[C@@H](CC(C)C)C(=O)N[C@@H](Cc1c[nH]cn1)C(=O)N[C@@H](CCC(=O)O)C(=O)N[C@@H](CC(C)C)C(=O)N[C@@H](C)C(=O)N[C@H](C(=O)N[C@@H](CC(C)C)C(=O)N1CCC[C@H]1C(=O)N[C@@H](CCCNC(=N)N)C(=O)N[C@H](C(=O)N[C@@H](CCC(=O)O)C(=O)N[C@H](C(=O)NCC(=O)N1CCC[C@H]1C(=O)N[C@@H](CCC(=O)O)C(=O)N[C@@H](CO)C(=O)N1CCC[C@H]1C(N)=O)[C@@H](C)O)[C@@H](C)O)[C@@H](C)O)[C@@H](C)O, also called Ex. #8) [[N-terminal(C18 diacid), 5I]mimylin] | 368 pM |
| {C18 diacid}-EASELSTAILGRLSAELHELATLPRTETGPESP-NH2 (SMILES CC[C@H](C)[C@H](NC(=O)[C@H](C)NC(=O)[C@@H](NC(=O)[C@H](CO)NC(=O)[C@H](CC(C)C)NC(=O)[C@H](CCC(=O)O)NC(=O)[C@H](CO)NC(=O)[C@H](C)NC(=O)[C@H](CCC(=O)O)NC(=O)CCCCCCCCCCCCCCCCC(=O)O)[C@@H](C)O)C(=O)N[C@@H](CC(C)C)C(=O)NCC(=O)N[C@@H](CCCNC(=N)N)C(=O)N[C@@H](CC(C)C)C(=O)N[C@@H](CO)C(=O)N[C@@H](C)C(=O)N[C@@H](CCC(=O)O)C(=O)N[C@@H](CC(C)C)C(=O)N[C@@H](Cc1c[nH]cn1)C(=O)N[C@@H](CCC(=O)O)C(=O)N[C@@H](CC(C)C)C(=O)N[C@@H](C)C(=O)N[C@H](C(=O)N[C@@H](CC(C)C)C(=O)N1CCC[C@H]1C(=O)N[C@@H](CCCNC(=N)N)C(=O)N[C@H](C(=O)N[C@@H](CCC(=O)O)C(=O)N[C@H](C(=O)NCC(=O)N1CCC[C@H]1C(=O)N[C@@H](CCC(=O)O)C(=O)N[C@@H](CO)C(=O)N1CCC[C@H]1C(N)=O)[C@@H](C)O)[C@@H](C)O)[C@@H](C)O, also called Ex. #10) [[N-terminal(C18 diacid), 9I]mimylin] | 523 pM |
| {C18 diacid}-EASELHTAALGRLSAELHELATLPRTETGPESP-NH2 (SMILES CC(C)C[C@H](NC(=O)[C@H](C)NC(=O)[C@H](C)NC(=O)[C@@H](NC(=O)[C@H](Cc1c[nH]cn1)NC(=O)[C@H](CC(C)C)NC(=O)[C@H](CCC(=O)O)NC(=O)[C@H](CO)NC(=O)[C@H](C)NC(=O)[C@H](CCC(=O)O)NC(=O)CCCCCCCCCCCCCCCCC(=O)O)[C@@H](C)O)C(=O)NCC(=O)N[C@@H](CCCNC(=N)N)C(=O)N[C@@H](CC(C)C)C(=O)N[C@@H](CO)C(=O)N[C@@H](C)C(=O)N[C@@H](CCC(=O)O)C(=O)N[C@@H](CC(C)C)C(=O)N[C@@H](Cc1c[nH]cn1)C(=O)N[C@@H](CCC(=O)O)C(=O)N[C@@H](CC(C)C)C(=O)N[C@@H](C)C(=O)N[C@H](C(=O)N[C@@H](CC(C)C)C(=O)N1CCC[C@H]1C(=O)N[C@@H](CCCNC(=N)N)C(=O)N[C@H](C(=O)N[C@@H](CCC(=O)O)C(=O)N[C@H](C(=O)NCC(=O)N1CCC[C@H]1C(=O)N[C@@H](CCC(=O)O)C(=O)N[C@@H](CO)C(=O)N1CCC[C@H]1C(N)=O)[C@@H](C)O)[C@@H](C)O)[C@@H](C)O, also called Ex. #16) [[N-terminal(C18 diacid), 6H]mimylin] | 981 pM |
| {C18 diacid}-EASEVSTAVLGRLSAELHELATLPRTETGPESP-NH2 (SMILES CC(C)C[C@H](NC(=O)[C@H](CCC(=O)O)NC(=O)[C@H](Cc1c[nH]cn1)NC(=O)[C@H](CC(C)C)NC(=O)[C@H](CCC(=O)O)NC(=O)[C@H](C)NC(=O)[C@H](CO)NC(=O)[C@H](CC(C)C)NC(=O)[C@H](CCCNC(=N)N)NC(=O)CNC(=O)[C@H](CC(C)C)NC(=O)[C@@H](NC(=O)[C@H](C)NC(=O)[C@@H](NC(=O)[C@H](CO)NC(=O)[C@@H](NC(=O)[C@H](CCC(=O)O)NC(=O)[C@H](CO)NC(=O)[C@H](C)NC(=O)[C@H](CCC(=O)O)NC(=O)CCCCCCCCCCCCCCCCC(=O)O)C(C)C)[C@@H](C)O)C(C)C)C(=O)N[C@@H](C)C(=O)N[C@H](C(=O)N[C@@H](CC(C)C)C(=O)N1CCC[C@H]1C(=O)N[C@@H](CCCNC(=N)N)C(=O)N[C@H](C(=O)N[C@@H](CCC(=O)O)C(=O)N[C@H](C(=O)NCC(=O)N1CCC[C@H]1C(=O)N[C@@H](CCC(=O)O)C(=O)N[C@@H](CO)C(=O)N1CCC[C@H]1C(N)=O)[C@@H](C)O)[C@@H](C)O)[C@@H](C)O, also called Ex. #24) [[N-terminal(C18 diacid), 5V, 9V]mimylin] | 749 pM |
| {C18 diacid}-EASELSTLALGRLSAELHELATLPRTETGPESP-NH2 (SMILES CC(C)C[C@H](NC(=O)[C@H](C)NC(=O)[C@H](CC(C)C)NC(=O)[C@@H](NC(=O)[C@H](CO)NC(=O)[C@H](CC(C)C)NC(=O)[C@H](CCC(=O)O)NC(=O)[C@H](CO)NC(=O)[C@H](C)NC(=O)[C@H](CCC(=O)O)NC(=O)CCCCCCCCCCCCCCCCC(=O)O)[C@@H](C)O)C(=O)NCC(=O)N[C@@H](CCCNC(=N)N)C(=O)N[C@@H](CC(C)C)C(=O)N[C@@H](CO)C(=O)N[C@@H](C)C(=O)N[C@@H](CCC(=O)O)C(=O)N[C@@H](CC(C)C)C(=O)N[C@@H](Cc1c[nH]cn1)C(=O)N[C@@H](CCC(=O)O)C(=O)N[C@@H](CC(C)C)C(=O)N[C@@H](C)C(=O)N[C@H](C(=O)N[C@@H](CC(C)C)C(=O)N1CCC[C@H]1C(=O)N[C@@H](CCCNC(=N)N)C(=O)N[C@H](C(=O)N[C@@H](CCC(=O)O)C(=O)N[C@H](C(=O)NCC(=O)N1CCC[C@H]1C(=O)N[C@@H](CCC(=O)O)C(=O)N[C@@H](CO)C(=O)N1CCC[C@H]1C(N)=O)[C@@H](C)O)[C@@H](C)O)[C@@H](C)O, also called Ex. #15) [[N-terminal(C18 diacid), 8L]mimylin] | 473 pM |
